This note sets out measurements from publication PMC9352930.

For test [1], the target named is EWEnH fusion protein (EWE fused to FH CCP2-4) (human). Description: BLI; kinetics: EWE, EWEµH or EWEnH held on anti-penta his (His1K) biosensors, dilution series of C3b or iC3b; 20 mM HEPES pH 7.5, 150 mM NaCl, 30°C; 1:1 model.
In test [2] the target is EWEµH fusion protein (EWE fused to FH CCP2-4 and CCP19-20) (human). The description is as above.

Consider “C3b (proteolytic fragment of complement component C3) (from UniProt P01024 749-1663; P01024 749-1663) (domain or fragment)”, for which the Kd in test [1] amounted to 8.9 nM; in test [2], 0.4 nM.
In the same order, the values of iC3b (domain or fragment) are 7.1 nM and 2.9 nM.
